One assay addresses T1, human mature TGF-beta 1 (human, UniProt P01137 279-390).
T1 construct: mature
Put plainly: ELISA, plate coated with human mature TGF-beta 1, anti-human IgG-HRP detection. Background: In an ELISA, binding on a coated surface is turned into a signal by an enzyme label.

The target of the next assay is T2, flag-tagged mouse LAP (mouse).
T2 construct: also called recombinant mouse latency associated protein (LAP); mouse latency associated peptide
T2 chain: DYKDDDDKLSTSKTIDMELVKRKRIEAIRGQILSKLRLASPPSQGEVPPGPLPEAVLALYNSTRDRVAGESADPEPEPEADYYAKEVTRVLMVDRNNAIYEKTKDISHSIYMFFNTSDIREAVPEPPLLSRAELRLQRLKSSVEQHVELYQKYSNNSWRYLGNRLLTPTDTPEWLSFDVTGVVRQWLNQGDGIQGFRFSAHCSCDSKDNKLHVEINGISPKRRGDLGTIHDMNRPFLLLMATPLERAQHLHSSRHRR
Briefly: ELISA, plate coated with mouse LAP, anti-human IgG-HRP detection.

Assay [1] concerns the target T3, flag-tagged human latent TGF-beta 1 (human, UniProt P01137 34-390).
T3 construct: Small latent complex: homodimer of LAP and mature TGF-beta 1 held non-covalently; also called human latent TGF-beta 1 (SLC); hSLC
Briefly: SPR Biacore 8k, antibody captured by anti-human kappa, latent TGF-beta 1 (SLC) as analyte, 37 C, 1:1 model.
Procedure: (§1) Mouse anti-human Ig kappa light chain antibody (BD Pharmingen) was immobilized onto all flow cells of a CMS sensor chip using amine coupling kit (GE Healthcare). […] All antibodies and analytes were prepared in ACES pH 7.4 containing 20 mM ACES, 150 mM NaCl, 0.05% Tween 20, 0.005% NaN₃. Assay temperature was set at 37 degrees C. Sensor surface was regenerated each cycle with 10 mM Glycine-HCl, pH2.1. Binding activity was determined by processing and fitting the data to 1:1 binding model using Biacore Insight Software, version 1.1.1.7442 (GE Healthcare).

For assay [2], the target named is T4, flag-tagged mouse latent TGF-beta 1 (mouse, UniProt P04202 34-390).
T4 construct: also called mouse latent TGF-beta 1 (SLC); mSLC
The assay is described as above.
Procedure: as §1

Assay [3] deals with T5, flag-tagged cynomolgus monkey latent TGF-beta 1 (cynomolgus monkey, UniProt P01137 34-390 (human entry), limits assumed).
T5 construct: also called monkey latent TGF-beta 1 (SLC); Cyno latent TGF-beta 1
The description is as above.
Procedure: as §1

Another assay addresses T6, mouse mature TGF-beta 1 (mouse, UniProt P04202 279-390).
T6 construct: mature
Put plainly: ELISA, plate coated with mouse mature TGF-beta 1, anti-human IgG-HRP detection.

Three molecules from patent US20210395356A1 (Chugai, published 2021) can be followed below.

Residue numbers refer to the chain shown, from its start.

T1 sequence (P01137 279-390 limits assumed): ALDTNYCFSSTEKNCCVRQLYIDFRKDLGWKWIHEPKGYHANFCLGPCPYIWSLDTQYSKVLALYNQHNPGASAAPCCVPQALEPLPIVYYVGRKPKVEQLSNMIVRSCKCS
Procedure for human mature TGF-beta 1: (§2) 384-well plate was coated with mouse or human mature TGF-beta 1 for overnight at 4 degree C., and then washed four times with PBS-T. After washing, the plate was blocked with blocking buffer (1×TBS/Tween-20+0.5% BSA+1× Block ace) for at least 1 hour at room temperature, and then washed four times with PBS-T. After washing, an antibody solution was added to the plate and incubated for 2 hours at room temperature, and then washed four times with PBS-T. After washing, diluted secondary antibody (goat anti-human IgG-HRP, Abcam, Cat. ab98624) was added to the plate and incubated for 1 hour at room temperature, and then washed four times with PBS-T. After washing, TMB solution was added to the plate and incubated for 15 minutes at room temperature, then 1N sulfuric acid was added to stop the reaction. The absorbance (optical density; OD) was measured at 450 nm/570 nm.
Procedure for mouse mature TGF-beta 1: as §2

B1: hT0947AE08-SG191 (antibody, IgG1, V domains shown)
VH: QVQLVESGGGVVQPGRSLRLSCAASGFTFSSYAMNWIRQPPGKGLEWIGYIYTSGTRYRANWARGRFTISRDNSKNTLYLQMNSLRAEDTAVYYCARGTDIYDYYYWVMDLWGPGTLVTVSS
VL: DIQMTQSPSSLSASVGDRVTITCQASQSISTYLAWYQQKPGQPPKLLIYAASTLESGVPSRFSGSGSGTDFTLTISSLQPEDFATYYCQSYSDGDSVGFGQGTKVEIKR
notes: Humanized, optimized IgG1; also called hT0947AE08-5G191
As to B1, the figures for the binding result with human mature TGF-beta 1, with flag-tagged mouse LAP and with mouse mature TGF-beta 1 were “no binding (tested: 10 ug/mL)”, “binds” and “no binding (tested: 10 ug/mL)”, respectively. In addition, the values for the dissociation constant Kd in assay [1], in assay [2] and in assay [3] were 1.13 nM, 1.1 nM and 1 nM, respectively. The koff in assay [1] came to 0.00043 s⁻¹; in assay [2], 0.000319 s⁻¹; in assay [3], 0.000326 s⁻¹. Moreover, the values for the association rate constant (kon) in assay [1], in assay [2] and in assay [3] were 381000 M⁻¹ s⁻¹, 292000 M⁻¹ s⁻¹ and 325000 M⁻¹ s⁻¹, respectively.

B2: hT0947AE04-SG191 (antibody, IgG1, V domains shown)
VH: B1 VH with R57T, R59H, D100F, Y102W
VL: B1 VL with A50K, G94A
notes: Humanized, optimized IgG1
Regarding B2, the binding result is recorded as “binds” with flag-tagged mouse LAP and “no binding (tested: 10 ug/mL)” in the assay with mouse mature TGF-beta 1. Besides, in assay [2], binding was characterised by a dissociation constant (Kd) of 1.89 nM.

B3: hT0947AE09-SG191 (antibody, IgG1, V domains shown)
VH: B1 VH
VL: B1 VL with G94A
notes: Humanized, optimized IgG1; also called hT0947AE09-5G191; hT0947A09-SG191
As to B3, the binding result is “no binding (tested: 10 ug/mL)” with human mature TGF-beta 1, “binds” with flag-tagged mouse LAP and “no binding (tested: 10 ug/mL)” with mouse mature TGF-beta 1. Besides, the Kd in assay [1] is 2.15 nM; in assay [2] it was 1.6 nM; in assay [3] it was 2.24 nM. The off-rate constant (koff) in assay [1] was determined as 0.000727 s⁻¹; in assay [2] it was 0.000388 s⁻¹; in assay [3], 0.000659 s⁻¹. Further, the on-rate (kon) in assay [1] stood at 339000 M⁻¹ s⁻¹; in assay [2], 243000 M⁻¹ s⁻¹; in assay [3], 294000 M⁻¹ s⁻¹.

For orientation: Kd means a measure of binding affinity in units of concentration. For orientation: koff means a measure of how fast the partners let go of each other. The kon is the second-order rate constant of association.
